In the test the target is Biotinylated FcγRIIIa (human) (UniProt P08637). The test can be described thus: BLI. A general note: Biolayer interferometry detects binding as a change in optical thickness at a sensor tip.
Chain of UniProt P08637 (P08637 21-186): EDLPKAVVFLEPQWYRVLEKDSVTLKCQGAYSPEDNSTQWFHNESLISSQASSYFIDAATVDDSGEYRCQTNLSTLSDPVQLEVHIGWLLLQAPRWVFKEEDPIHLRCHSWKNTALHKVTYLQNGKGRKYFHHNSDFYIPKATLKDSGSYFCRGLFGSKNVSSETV

For “Mogamulizumab, anti-CCR4 humanized IgG1 (antibody)”, the fold larger kon than Ada was determined as 3.5 fold, the fold larger kon than Rtx came to 4 fold, the fold lower KD than Ada was > 20 fold and the fold lower KD than Rtx is > 20 fold. The same substance showed a fold smaller koff than Ada of 6 fold and a fold smaller koff than Rtx of 5 fold.

For the origin of these results see article PMC8932917.
